Results taken from patent US20240100134.

Assays:
[1] = test system: recombinant human plasminogen (not fused to Fc, wild-type)
[2] = test system: recombinant plasminogen-linker-Fc fusion (human plasminogen, QA linker GQAGQAS, Fc)
recombinant plasminogen-linker-Fc fusion (human plasminogen, QA linker GQAGQAS, Fc), sequence (chain, as listed by the source): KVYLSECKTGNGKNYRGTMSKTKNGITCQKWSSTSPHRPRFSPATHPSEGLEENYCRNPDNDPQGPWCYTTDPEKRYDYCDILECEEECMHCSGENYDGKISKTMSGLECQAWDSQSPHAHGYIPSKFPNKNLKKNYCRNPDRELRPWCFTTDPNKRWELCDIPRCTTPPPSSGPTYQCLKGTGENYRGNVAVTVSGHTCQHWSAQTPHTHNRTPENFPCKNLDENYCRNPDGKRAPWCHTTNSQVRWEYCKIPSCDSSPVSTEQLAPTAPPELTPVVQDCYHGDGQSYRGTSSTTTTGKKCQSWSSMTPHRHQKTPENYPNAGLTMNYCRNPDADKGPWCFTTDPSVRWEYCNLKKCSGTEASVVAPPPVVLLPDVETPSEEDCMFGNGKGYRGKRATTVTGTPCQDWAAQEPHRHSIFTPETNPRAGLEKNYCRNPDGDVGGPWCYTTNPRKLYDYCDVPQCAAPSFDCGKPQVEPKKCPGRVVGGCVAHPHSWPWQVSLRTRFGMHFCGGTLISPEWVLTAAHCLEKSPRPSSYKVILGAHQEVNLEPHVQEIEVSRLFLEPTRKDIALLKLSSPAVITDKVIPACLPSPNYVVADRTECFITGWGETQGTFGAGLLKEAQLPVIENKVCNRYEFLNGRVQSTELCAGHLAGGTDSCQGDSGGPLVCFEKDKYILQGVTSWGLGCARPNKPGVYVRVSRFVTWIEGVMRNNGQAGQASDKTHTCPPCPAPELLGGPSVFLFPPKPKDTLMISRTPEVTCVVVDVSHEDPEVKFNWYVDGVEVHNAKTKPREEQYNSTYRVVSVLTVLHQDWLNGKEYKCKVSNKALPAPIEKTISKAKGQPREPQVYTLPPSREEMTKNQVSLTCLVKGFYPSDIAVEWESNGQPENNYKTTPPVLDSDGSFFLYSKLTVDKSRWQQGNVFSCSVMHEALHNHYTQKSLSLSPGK

recombinant human plasminogen (not fused to Fc, wild-type), sequence (chain, as listed by the source): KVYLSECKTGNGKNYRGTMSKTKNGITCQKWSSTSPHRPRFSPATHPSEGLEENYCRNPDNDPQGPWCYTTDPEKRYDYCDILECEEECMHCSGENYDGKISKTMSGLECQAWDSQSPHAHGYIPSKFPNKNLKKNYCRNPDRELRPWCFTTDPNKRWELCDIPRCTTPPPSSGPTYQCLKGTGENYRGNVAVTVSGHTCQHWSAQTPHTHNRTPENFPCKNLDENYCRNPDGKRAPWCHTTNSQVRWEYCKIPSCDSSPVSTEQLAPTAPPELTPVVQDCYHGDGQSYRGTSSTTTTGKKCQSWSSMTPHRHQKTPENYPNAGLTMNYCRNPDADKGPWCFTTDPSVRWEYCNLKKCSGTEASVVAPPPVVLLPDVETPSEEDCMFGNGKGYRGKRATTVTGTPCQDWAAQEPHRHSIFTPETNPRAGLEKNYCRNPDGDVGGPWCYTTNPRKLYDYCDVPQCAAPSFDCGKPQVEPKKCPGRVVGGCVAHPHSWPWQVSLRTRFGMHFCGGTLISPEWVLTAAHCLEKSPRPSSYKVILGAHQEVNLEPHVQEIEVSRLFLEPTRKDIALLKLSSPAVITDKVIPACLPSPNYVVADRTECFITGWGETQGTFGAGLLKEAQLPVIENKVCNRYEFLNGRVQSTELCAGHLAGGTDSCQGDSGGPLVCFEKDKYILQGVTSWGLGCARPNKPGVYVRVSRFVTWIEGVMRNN

## urokinase-type plasminogen activator
[1]
  Michelis-Menten analysis of activation (KM and Vmax), 10 mM EACA: the kinetics of rPlg and rPlg-Fc activation are similar (as indicated by the KM and Vmax)
  activation measured by the hydrolysis of plasmin fluorogenic substrate H-Ala-Phe-Lys-AMC: In the presence of tPA or uPA, comparable hydrolytic activity for rPlg and rPlg-Fc is observed
[2]
  Michelis-Menten analysis of activation (KM and Vmax), 10 mM EACA: the kinetics of rPlg and rPlg-Fc activation are similar (as indicated by the KM and Vmax)
  activation measured by the hydrolysis of plasmin fluorogenic substrate H-Ala-Phe-Lys-AMC: In the presence of tPA or uPA, comparable hydrolytic activity for rPlg and rPlg-Fc is observed
